# Laboratory results from the supplement of paper PMC9732359.
# ± gives the uncertainty stated by the source.
# Test: protein stability index of a GFP-peptide fusion (yeast GPS) (PSI 1-4); higher = more stable; sorted into four equal gates, so the index is relative within each strain
# How it was run: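 The protein stability index of a peptide was calculated by multiplying its read frequency in each gate by that gate's number and adding the products. The peptides were tiled 17-residue stretches of yeast proteins, fused downstream of GFP on a Cherry-expressing plasmid and carried in yeast as a pooled library. Mid-log cultures in leucine-free medium were sorted into four equal gates by GFP/Cherry ratio, and each gate's plasmids were PCR-amplified and Illumina-sequenced.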
Sequence,protein stability index (doa10∆),protein stability index (pdr5∆),protein stability index (san1∆),protein stability index (ubr1∆)
HPVSLISFAIYSALNST [RRP42],1.53 ± 0.051,1.55 ± 0.058,1.62 ± 0.089,1.84 ± 0.045
NFKKFNERRKDLAERAS [SMC3],1.47 ± 0.061,1.97 ± 0.073,1.57 ± 0.11,2.05 ± 0.097
PANAEPQAVTITSIMDD [ITC1],2.39 ± 0.11,2.83 ± 0.09,2.49 ± 0.069,3.02 ± 0.11
SYFKNSVIVKFHSEPDR [LIN1],2.23 ± 0.062,2.59 ± 0.075,2.44 ± 0.067,2.77 ± 0.047
SYDRTLLIADSRRPEPK [RPS16A],2.25 ± 0.043,2.48 ± 0.068,2.03 ± 0.075,2.29 ± 0.058
LIKERQEMERKLEKKRN [ESC2],,,3.1 ± 0.15,
IEALYDDDTFSDREMAA [RPN2],2.19 ± 0.066,1.89 ± 0.051,1.57 ± 0.1,2.13 ± 0.054
KGRAYKRLLYTRRFVNV [RPS30A],2.38 ± 0.058,2.12 ± 0.064,2.81 ± 0.069,2.76 ± 0.039
IYAGFGRDTTDYLKNII [RPN2],,2.75 ± 0.21,3.22 ± 0.16,
TMHTKTYAAEIAHNISA [RPL32],2.34 ± 0.042,2.42 ± 0.04,2.21 ± 0.051,2.33 ± 0.036
DTLDSKSNGSSDDDNIG [ISW2],3.26 ± 0.09,3.23 ± 0.074,3.11 ± 0.057,3.03 ± 0.067
KILITYGSSPKLLATST [SRB8],1.22 ± 0.039,1.33 ± 0.039,1.48 ± 0.091,1.53 ± 0.042
KLIAAAEDGSRSTKDMI [SNF6],3.54 ± 0.15,3.69 ± 0.23,3.44 ± 0.14,3.54 ± 0.087
FNYGKLPLPPSVEWMKV [SIN4],2.6 ± 0.11,2.93 ± 0.093,2.93 ± 0.065,2.92 ± 0.064
NDQVEKDAEDETSSDGS [RPN1],2.63 ± 0.15,2.42 ± 0.096,2.04 ± 0.17,2.59 ± 0.13
TKLIQYEHNGRTLEAIT [CSL4],2.22 ± 0.049,2.48 ± 0.044,2.38 ± 0.055,2.29 ± 0.034
SKKAEKTGTKPAAVFAE [RPL4B],2.52 ± 0.068,2.8 ± 0.084,2.44 ± 0.072,2.75 ± 0.061
NLLKFITSNHKSSVPGS [RPN3],2.55 ± 0.11,2.77 ± 0.1,2.07 ± 0.067,2.41 ± 0.087
TRYNRDYMLSMANIPER [SNU114],1.48 ± 0.073,2.44 ± 0.055,2.62 ± 0.1,1.43 ± 0.047
MDDEEWRSKRIEQLFPV [RPC53],3.24 ± 0.085,2.31 ± 0.055,2.89 ± 0.049,2.37 ± 0.041

Sequence,protein stability index (doa10∆),protein stability index (pdr5∆),protein stability index (san1∆),protein stability index (ubr1∆)
GHSQFTSHYQNYHPNAS [RPN4],2.56 ± 0.049,2.44 ± 0.044,2.15 ± 0.09,2.22 ± 0.038
CLNCEKSKLFEWKSEFV [SNM1],2.61 ± 0.14,2.68 ± 0.13,2.97 ± 0.067,2.7 ± 0.12
ADQEQAKLIRSAIEHTT [RPO21],3.19 ± 0.12,2.96 ± 0.15,2.82 ± 0.1,2.84 ± 0.1
TFENTNNTEKNDVTNKN [SIR4],2.78 ± 0.094,2.89 ± 0.068,2.88 ± 0.059,3.04 ± 0.039
SFTSATERHIQVGDGLE [PRE7],2.79 ± 0.098,2.56 ± 0.075,3.35 ± 0.091,2.85 ± 0.049
TVHEMEEELKKLRDHEP [SMC4],3.54 ± 0.27,3.26 ± 0.22,,3.62 ± 0.2
MSPFLRKVVKPSSLNSD [SRB4],2.41 ± 0.058,2.87 ± 0.061,2.03 ± 0.081,2.34 ± 0.044
LTQGINGKEVPLAKIYL [MED1],2.52 ± 0.26,2.95 ± 0.17,2.32 ± 0.2,2.21 ± 0.23
LPNETINDRNDRAIRKT [DIS3],,,,2.29 ± 0.11
AKLESLLENSVDKNFDK [MTW1],3.39 ± 0.06,3.24 ± 0.076,3.34 ± 0.048,3.32 ± 0.066
SDNSVSVRLQVTKILPH [IRR1],2.86 ± 0.15,2.92 ± 0.12,2.74 ± 0.097,3.04 ± 0.074
PLKIHRTPYLTSLKKIK [SWI1],1.81 ± 0.054,1.82 ± 0.043,1.75 ± 0.07,1.79 ± 0.039
DFKPPYIYSHVNKVPQN [SWP82],2.16 ± 0.12,2.14 ± 0.11,2.79 ± 0.14,2.62 ± 0.054
KKEATKPAFSFGINTNT [YLR335W/NUP2],2.99 ± 0.062,3.02 ± 0.086,3.26 ± 0.038,3.35 ± 0.056
AEQSFDQQSPWLLRLEL [RPO21],3 ± 0.052,3.14 ± 0.051,3.1 ± 0.039,3.11 ± 0.04
SFILSSLEDPQVRKKQI [YDL116W/NUP84],1.94 ± 0.11,2.09 ± 0.079,2.44 ± 0.098,3 ± 0.1
FDMTNHYNDSQQLRTWK [SRB8],2.99 ± 0.079,3.01 ± 0.084,3 ± 0.078,2.9 ± 0.061
VDPARRQILFKYPMYMQ [MED6],1.54 ± 0.069,1.78 ± 0.076,1.95 ± 0.17,1.47 ± 0.051
ITYTPVRHGRAGATTSR [RPS15],2.28 ± 0.11,2.24 ± 0.081,2.58 ± 0.088,2.92 ± 0.099
DKLSVSEISDGKLKRCS [SIN4],3.27 ± 0.15,3.38 ± 0.13,3.15 ± 0.1,3.6 ± 0.11
